Test results from patent US20070105771A1 (Y S THERAPEUTICS, published 2007).

Experiments:
[1] = target: T1, human CD26-derived 13 mer peptide 74 (human); test: peptide microarray
T1 peptide: IYNGITDWVYEEE
Procedure: (§1) The overnight incubation was followed by three washings with each of PBS buffer pH 7.5 and water. The microarrays were then scanned using ArrayWorx-Microarray Scanner.
(§2) The SPOT recognition software package ArrayPro was used for data analysis. The mean of signal intensities from 3 identical subarrays on each microarray image was used for data evaluation.

[2] = target: T2, human CD26-derived 13 mer peptide 88 (human); test: peptide microarray
T2 peptide: FLAYAQFNDTEVP
Procedure: as §1, §2

[3] = target: T3, human CD26-derived 13 mer peptide 89 (human); test: peptide microarray
T3 peptide: AYAQFNDTEVPLI
Procedure: as §1, §2

[4] = target: T4, human CD26-derived 13 mer peptide 90 (human); test: peptide microarray
T4 peptide: AQFNDTEVPLIEY
Procedure: as §1, §2

[5] = target: T5, human CD26-derived 13 mer peptide 96 (human); test: peptide microarray
T5 peptide: YSFYSDESLQYPK
Procedure: as §1, §2

[6] = target: T6, human CD26-derived 13 mer peptide 99 (human); test: peptide microarray
T6 peptide: ESLQYPKTVRVPY
Procedure: as §1, §2

[7] = target: T7, human CD26-derived 13 mer peptide 100 (human); test: peptide microarray
T7 peptide: LQYPKTVRVPYPK
Procedure: as §1, §2

[8] = target: T8, human CD26-derived 13 mer peptide 102 (human); test: peptide microarray
T8 peptide: KTVRVPYPKAGAV
Procedure: as §1, §2

[9] = target: T9, human CD26-derived 13 mer peptide 103 (human); test: peptide microarray
T9 peptide: VRVPYPKAGAVNP
Procedure: as §1, §2

[10] = target: T10, human CD26-derived 13 mer peptide 104 (human); test: peptide microarray
T10 peptide: VPYPKAGAVNPTV
Procedure: as §1, §2

[11] = target: T11, human CD26-derived 13 mer peptide 105 (human); test: peptide microarray
T11 peptide: YPKAGAVNPTVKF
Procedure: as §1, §2

[12] = target: T12, human CD26-derived 13 mer peptide 106 (human); test: peptide microarray
T12 peptide: KAGAVNPTVKFFV
Procedure: as §1, §2

[13] = target: T13, human CD26-derived 13 mer peptide 108 (human); test: peptide microarray
T13 peptide: VNPTVKFFVVNTD
Procedure: as §1, §2

[14] = target: T14, human CD26-derived 13 mer peptide 109 (human); test: peptide microarray
T14 peptide: PTVKFFVVNTDSL
Procedure: as §1, §2

[15] = target: T15, human CD26-derived 13 mer peptide 110 (human); test: peptide microarray
T15 peptide: VKFFVVNTDSLSS
Procedure: as §1, §2

[16] = target: T16, human CD26-derived 13 mer peptide 111 (human); test: peptide microarray
T16 peptide: FFVVNTDSLSSVT
Procedure: as §1, §2

[17] = target: T17, human CD26-derived 13 mer peptide 112 (human); test: peptide microarray
T17 peptide: VVNTDSLSSVTNA
Procedure: as §1, §2

[18] = target: T18, human CD26-derived 13 mer peptide 113 (human); test: peptide microarray
T18 peptide: NTDSLSSVTNATS
Procedure: as §1, §2

[19] = target: T19, human CD26-derived 13 mer peptide 114 (human); test: peptide microarray
T19 peptide: DSLSSVTNATSIQ
Procedure: as §1, §2

[20] = target: T20, human CD26-derived 13 mer peptide 115 (human); test: peptide microarray
T20 peptide: LSSVTNATSIQIT
Procedure: as §1, §2

[21] = target: T21, human CD26-derived 13 mer peptide 116 (human); test: peptide microarray
T21 peptide: SVTNATSIQITAP
Procedure: as §1, §2

[22] = target: T22, human CD26-derived 13 mer peptide 117 (human); test: peptide microarray
T22 peptide: TNATSIQITAPAS
Procedure: as §1, §2

[23] = target: T23, human CD26-derived 13 mer peptide 118 (human); test: peptide microarray
T23 peptide: ATSIQITAPASML
Procedure: as §1, §2

[24] = target: T24, human CD26-derived 13 mer peptide 119 (human); test: peptide microarray
T24 peptide: SIQITAPASMLIG
Procedure: as §1, §2

[25] = target: T25, human CD26-derived 13 mer peptide 120 (human); test: peptide microarray
T25 peptide: QITAPASMLIGDH
Procedure: as §1, §2

[26] = target: T26, human CD26-derived 13 mer peptide 122 (human); test: peptide microarray
T26 peptide: PASMLIGDHYLCD
Procedure: as §1, §2

[27] = target: T27, human CD26-derived 13 mer peptide 130 (human); test: peptide microarray
T27 peptide: ATQERISLQWLRR
Procedure: as §1, §2

[28] = target: T28, human CD26-derived 13 mer peptide 9 (human); test: peptide microarray
T28 peptide: SDHEYLYKQENNI
Procedure: as §1, §2

[29] = target: T29, human CD26-derived 13 mer peptide 12 (human); test: peptide microarray
T29 peptide: YKQENNILVFNAE
Procedure: as §1, §2

[30] = target: T30, human CD26-derived 13 mer peptide 14 (human); test: peptide microarray
T30 peptide: NNILVFNAEYGNS
Procedure: as §1, §2

[31] = target: T31, human CD26-derived 13 mer peptide 18 (human); test: peptide microarray
T31 peptide: EYGNSSVFLENST
Procedure: as §1, §2

[32] = target: T32, human CD26-derived 13 mer peptide 19 (human); test: peptide microarray
T32 peptide: GNSSVFLENSTFD
Procedure: as §1, §2

[33] = target: T33, human CD26-derived 13 mer peptide 20 (human); test: peptide microarray
T33 peptide: SSVFLENSTFDEF
Procedure: as §1, §2

[34] = target: T34, human CD26-derived 13 mer peptide 21 (human); test: peptide microarray
T34 peptide: VFLENSTFDEFGH
Procedure: as §1, §2

[35] = target: T35, human CD26-derived 13 mer peptide 22 (human); test: peptide microarray
T35 peptide: LENSTFDEFGHSI
Procedure: as §1, §2

[36] = target: T36, human CD26-derived 13 mer peptide 23 (human); test: peptide microarray
T36 peptide: NSTFDEFGHSIND
Procedure: as §1, §2

[37] = target: T37, human CD26-derived 13 mer peptide 24 (human); test: peptide microarray
T37 peptide: TFDEFGHSINDYS
Procedure: as §1, §2

[38] = target: T38, human CD26-derived 13 mer peptide 25 (human); test: peptide microarray
T38 peptide: DEFGHSINDYSIS
Procedure: as §1, §2

[39] = target: T39, human CD26-derived 13 mer peptide 26 (human); test: peptide microarray
T39 peptide: FGHSINDYSISPD
Procedure: as §1, §2

[40] = target: T40, human CD26-derived 13 mer peptide 27 (human); test: peptide microarray
T40 peptide: HSINDYSISPDGQ
Procedure: as §1, §2

[41] = target: T41, human CD26-derived 13 mer peptide 42 (human); test: peptide microarray
T41 peptide: ASYDIYDLNKRQL
Procedure: as §1, §2

[42] = target: T42, human CD26-derived 13 mer peptide 44 (human); test: peptide microarray
T42 peptide: IYDLNKRQLITEE
Procedure: as §1, §2

[43] = target: T43, human CD26-derived 13 mer peptide 45 (human); test: peptide microarray
T43 peptide: DLNKRQLITEERI
Procedure: as §1, §2

[44] = target: T44, human CD26-derived 13 mer peptide 46 (human); test: peptide microarray
T44 construct: also called NKRQL1TEERIPN
T44 peptide: NKRQLITEERIPN
Procedure: as §1, §2

[45] = target: T45, human CD26-derived 13 mer peptide 47 (human); test: peptide microarray
T45 peptide: RQLITEERIPNNT
Procedure: as §1, §2

[46] = target: T46, human CD26-derived 13 mer peptide 49 (human); test: peptide microarray
T46 construct: also called TEERJPNNTQWVT
T46 peptide: TEERIPNNTQWVT
Procedure: as §1, §2

[47] = target: T47, human CD26-derived 13 mer peptide 51 (human); test: peptide microarray
T47 peptide: IPNNTQWVTWSPV
Procedure: as §1, §2

[48] = target: T48, human CD26-derived 13 mer peptide 61 (human); test: peptide microarray
T48 peptide: WNNDIYVKIEPNL
Procedure: as §1, §2

[49] = target: human CD26 on the cell surface (human, UniProt P27487 1-766); test: cell-based or functional assay
human CD26 on the cell surface, sequence (P27487 whole entry): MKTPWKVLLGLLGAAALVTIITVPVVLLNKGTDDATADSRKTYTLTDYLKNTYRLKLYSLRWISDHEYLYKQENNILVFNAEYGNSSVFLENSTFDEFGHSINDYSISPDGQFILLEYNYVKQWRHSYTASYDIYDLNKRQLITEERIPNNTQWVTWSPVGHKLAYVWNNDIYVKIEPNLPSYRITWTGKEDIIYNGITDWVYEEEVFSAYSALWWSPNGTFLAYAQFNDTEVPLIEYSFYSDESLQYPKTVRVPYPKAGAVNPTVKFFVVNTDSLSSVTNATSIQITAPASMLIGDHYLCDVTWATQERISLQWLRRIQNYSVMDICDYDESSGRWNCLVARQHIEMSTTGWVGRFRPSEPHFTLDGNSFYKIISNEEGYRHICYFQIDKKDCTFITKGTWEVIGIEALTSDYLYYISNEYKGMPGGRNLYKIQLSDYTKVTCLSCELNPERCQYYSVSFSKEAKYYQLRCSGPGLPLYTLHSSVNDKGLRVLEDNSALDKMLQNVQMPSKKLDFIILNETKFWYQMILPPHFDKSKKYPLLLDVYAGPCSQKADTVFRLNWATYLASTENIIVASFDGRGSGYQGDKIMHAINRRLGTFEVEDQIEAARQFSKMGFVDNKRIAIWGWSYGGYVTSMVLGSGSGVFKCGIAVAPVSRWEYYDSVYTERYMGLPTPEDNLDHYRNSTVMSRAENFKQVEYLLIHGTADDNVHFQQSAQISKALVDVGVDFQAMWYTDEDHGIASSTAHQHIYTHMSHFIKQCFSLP

B1: rhuMAb 409 (antibody, human IgG1, V domains shown)
VH: QVKLQESGPGLVQPSQTLSITCTVSGFSLTTYGVHWVRQSPGKGLEWLGVIWGGGRTDYDAAFISRLSISKDNSKSQVFFKMNSLQANDTAIYYCVRNRHDWFDYWGQGTTVTVSS
VL: DIQMTQSPSSLSASLGDRVTITCSASQGIRNSLNWYQQKPDGAVKLLIYYSSNLHSGVPSRFSGSGSGTDFSLTISNLEPEDIATYYCQQSIKLPFTFGSGTKLEIKR
notes: CM03 VH and VL with human IgG1 heavy chain constant region and human kappa constant region; also called X409
Mean Signal Value [1]: 0
Mean Signal Value [2]: 0
Mean Signal Value [3]: 0
Mean Signal Value [4]: 0
Mean Signal Value [5]: 0
Mean Signal Value [6]: 0
Mean Signal Value [7]: 0
Mean Signal Value [8]: 0
Mean Signal Value [9]: 0
Mean Signal Value [10]: 0
Mean Signal Value [11]: 0
Mean Signal Value [12]: 0
Mean Signal Value [13]: 0
Mean Signal Value [14]: 0
Mean Signal Value [15]: 0
Mean Signal Value [16]: 0
Mean Signal Value [17]: 0
Mean Signal Value [18]: 0
Mean Signal Value [19]: 0
Mean Signal Value [20]: 0
Mean Signal Value [21]: 0
Mean Signal Value [22]: 0
Mean Signal Value [23]: 0
Mean Signal Value [24]: 0
Mean Signal Value [25]: 0
Mean Signal Value [26]: 0
Mean Signal Value [27]: 10
Mean Signal Value [28]: 0
Mean Signal Value [29]: 0
Mean Signal Value [30]: 0
Mean Signal Value [31]: 0
Mean Signal Value [32]: 0
Mean Signal Value [33]: 0
Mean Signal Value [34]: 0
Mean Signal Value [35]: 0
Mean Signal Value [36]: 0
Mean Signal Value [37]: 0
Mean Signal Value [38]: 0
Mean Signal Value [39]: 0
Mean Signal Value [40]: 0
Mean Signal Value [41]: 0
Mean Signal Value [42]: 0
Mean Signal Value [43]: 0
Mean Signal Value [44]: 0
Mean Signal Value [45]: 0
Mean Signal Value [46]: 0
Mean Signal Value [47]: 0
Mean Signal Value [48]: 0
percent inhibition, MTT assay, Jurkat CD26+ cells, 0.05 ug/ml [49]: 4.8%
percent inhibition, MTT assay, Jurkat CD26+ cells, 0.25 ug/ml [49]: 12.9%
percent inhibition, MTT assay, Jurkat CD26+ cells, 0.5 ug/ml [49]: 14.7%
percent inhibition, MTT assay, Jurkat CD26+ cells, 2.5 ug/ml [49]: 19.7%
percent inhibition, MTT assay, Jurkat CD26+ cells, 5 ug/ml [49]: 21.7%
